Experimental data from patent US20220040304A1, “A COMPOSITION FOR CANCER CELL DEATH AND ITS USE” (Industry-University Cooperation Foundation Hanyang …, priority 2018, published 2022).
Entries after “also recorded” stand apart in the source; their conditions may differ.

B1: RLuc8.6-KR: fusion protein of RLuc8.6 and KillerRed without lead peptide, 69 kDa (protein)
chain: MRGSHHHHHHGMASMTGGQQMGRDLYDDDDKDPMASKVYDPEQRKRMITGPQWWARCKQMNVLDSFINYYDSEKHAENAVIFLHGNATSSYLWRHVVPHIEPVARCIIPDLIGMGKSGKSGNGSYRLLDHYKYLTAWFELLNLPKKIIFVGHDWGSALAFHYAYEHQDRIKAIVHMESVVDVIESWMGWPDIEEELALIKSEEGEKMVLENNFFVETLLPSKIMRKLEPEEFAAYLEPFKEKGEVRRPTLSWPREIPLVKGGKPDVVQIVRNYNAYLRASDDLPKLFIESDPGFFYNAIVEGAKKFPNTEFVKVKGLHFLQEDAPDEMGKYIKSFVERVLKNEQEFGGGMLCCMRRTKQVEKNDEDQKISEGGPALFQSDMTFKIFIDGEVNGQKFTIVADGSSKFPHGDFNVHAVCETGKLPMSWKPICHLIQYGEPFFARYPDGISHFAQECFPEGLSIDRTVRFENDGTMTSHHTYELDDTCVVSRITVNCDGFQPDGPIMRDQLVDILPNETHMFPHGPNAVRQLAFIGFTTADGGLMMGHFDSKMTFNGSRAIEIPGPHFVTIITKQMRDTSDKRDHVCQREVAYAHSVPRITSAIGSDED
modifications: pRSET-RLuc8.6-KillerRed
B2: KR: first protein KillerRed, ROS-generating protein (superoxide), expressed from pRSET-KillerRed, 31 kDa (protein)
chain: MRGSHHHHHHGMASMTGGQQMGRDLYDDDDKDPMLCCMRRTKQVEKNDEDQKISEGGPALFQSDMTFKIFIDGEVNGQKFTIVADGSSKFPHGDFNVHAVCETGKLPMSWKPICHLIQYGEPFFARYPDGISHFAQECFPEGLSIDRTVRFENDGTMTSHHTYELDDTCVVSRITVNCDGFQPDGPIMRDQLVDILPNETHMFPHGPNAVRQLAFIGFTTADGGLMMGHFDSKMTFNGSRAIEIPGPHFVTIITKQMRDTSDKRDHVCQREVAYAHSVPRITSAIGSDED
modifications: pRSET-KillerRed
notes: first protein KillerRed, ROS-generating protein (superoxide), expressed from pRSET-KillerRed, 31 kDa
B3: RLuc8.6-KR-LP: fusion protein of RLuc8.6, KillerRed and lead peptide WLEAAYQRFL, 71 kDa (protein)
chain: MRGSHHHHHHGMASMTGGQQMGRDLYDDDDKDPMASKVYDPEQRKRMITGPQWWARCKQMNVLDSFINYYDSEKHAENAVIFLHGNATSSYLWRHVVPHIEPVARCIIPDLIGMGKSGKSGNGSYRLLDHYKYLTAWFELLNLPKKIIFVGHDWGSALAFHYAYEHQDRIKAIVHMESVVDVIESWMGWPDIEEELALIKSEEGEKMVLENNFFVETLLPSKIMRKLEPEEFAAYLEPFKEKGEVRRPTLSWPREIPLVKGGKPDVVQIVRNYNAYLRASDDLPKLFIESDPGFFYNAIVEGAKKFPNTEFVKVKGLHFLQEDAPDEMGKYIKSFVERVLKNEQEFGGGMLCCMRRTKQVEKNDEDQKISEGGPALFQSDMTFKIFIDGEVNGQKFTIVADGSSKFPHGDFNVHAVCETGKLPMSWKPICHLIQYGEPFFARYPDGISHFAQECFPEGLSIDRTVRFENDGTMTSHHTYELDDTCVVSRITVNCDGFQPDGPIMRDQLVDILPNETHMFPHGPNAVRQLAFIGFTTADGGLMMGHFDSKMTFNGSRAIEIPGPHFVTIITKQMRDTSDKRDHVCQREVAYAHSVPRITSAIGSDEDGGGWLEAAYQRFL
modifications: pRSET-RLuc8.6-KillerRed-Lead peptide

What was measured:
Assay type in all cases: cell-based, human
[1] = system: MCF-7 cells; test: Cell death by SYTOX Green or EthD-1 and DAPI fluorescence (light irradiation or Co-h); conditions: MCF-7, protein 10 μM 24 hours; light 10 mW/cm^2 or Co-h 150 μM over time
Experimental: MCF-7 cells were seeded at 5×10^5 cells/mL in a 96-well plate (SPL Cell Culture Plate, 96 well (SPL, Cat #30096)), and cultured at 37° C. for 24 hours (overnight). After the culture for 24 hours, the cells were washed with FBS & Phenol red-free media (RPMI), and 100 μL of an FBS-free medium containing the purified protein (final concentration: 10 μM) was added, followed by reaction at 37° C. for 24 hours.
After the reaction for 24 hours, the cells were washed with FBS & Phenol red-free media (RPMI), and then 100 μL of FBS & Phenol red-free media (RPMI) was then added.
After the reaction, 8.1 μL of FMN (final concentration: 150 μM) was added. After reaction for 18 hours or 24 hours, the cells were washed with FBS & Phenol red-free media (RPMI), and 100 μL of FBS & Phenol red-free media (RPMI) containing FMN (final concentration: 150 μM) was added, followed by reaction at 37° C. for 1 hour.
After the irradiation with light at 10 mW/cm^2 over time, 50 μL of SYTOX Green (Thermo Scientific Inc., USA; final concentration: 261 nM) staining DNA of dead cells was added and reacted at 37° C. for 30 minutes, and 10 μL of DAPI (Vecta Labs., Australia) staining DNA of live cells was added and reacted for 5 minutes.
SYTOX Green or EthD-1 and DAPI fluorescence images were observed using a confocal microscope according to a protein type treated to cells and i) light irradiation time or ii) reaction time with a Co-h substrate, and cell death was confirmed by measuring relative fluorescence intensity at an excitation wavelength of 504 nm and an emission wavelength of 523 nm of SYTOX Green, and an excitation wavelength of 525 nm and an emission wavelength of 590 nm of EthD-1 using a plate reader.
Whether or not Cell death was observed by fluorescence microscopy using SYTOX Green (dead cell-specific dye, green) or EthD-1 (dead cell-specific dye, red) and DAPI (live cell-specific dye, blue).

[2] = system: MDA-MB-231; test: Cell death with Co-h substrate by cell type (SYTOX Green or EthD-1/DAPI); conditions: MDA-MB-231, protein 10 μM, Co-h 150 μM for 5 minutes
Experimental: The cells were seeded at 5×10^5 cells/mL in 96-well plates (SPL Cell Culture Plate, 96 well (SPL, Cat #30096)), and cultured at 37° C. for 24 hours (overnight). After the culture for 24 hours, the cells were washed with FBS & phenol red-free media, and 100 μL of FBS & phenol red-free media containing a purified protein (final concentration: 10 μM) was added, followed by reaction at 37° C. for 24 hours.
Subsequently, the cells were washed with FBS & phenol red-free media, and 100 μL of FBS & phenol red-free media was added. 100 μL of FBS & Phenol red-free media (RPMI) containing a Co-h substrate solution (final concentration: 150 μM) was added, followed by reaction at 37° C. for 5 minutes.
After the reaction, 50 μL of SYTOX Green (final concentration: 261 nM) or 90 μL of ethidium homodimer (EthD-1) (final concentration 1×), which stains DNA of dead cells, was added, followed by reaction at 37° C. for 30 minutes. 10 μL of DAPI staining DNA of live cells was added, followed by reaction for 5 minutes. Cell death was confirmed by observing KillerRed, SYTOX Green, MiniSOG, EthD-1 and DAPI fluorescence using a confocal microscope.

[3] = system: MCF-7 cells; test: MTT colorimetric change and cell viability after reaction with Co-h substrate; conditions: MCF-7, protein 10 μM 24 hours, Co-h 150 μM, without light irradiation
Experimental: MCF-7 cells were seeded at 5×10^5 cells/mL in a 96-well plate (SPL Cell Culture Plate, 96 well (SPL, Cat #30096)), and cultured at 37° C. for 24 hours (overnight).
After the culture for 24 hours, the cells were washed with FBS & Phenol red-free media (RPMI), and 100 μL of an FBS-free medium containing the purified protein (final concentration: 10 μM) was added, followed by reaction at 37° C. for 24 hours.
After the reaction for 24 hours, the cells were washed with FBS & Phenol red-free media (RPMI), and then 100 μL of FBS & Phenol red-free media (RPMI) containing a Co-h substrate solution (final concentration: 150 μM) was added. The cells were washed with FBS & Phenol red-free media (RPMI), and 100 μL of fresh FBS & Phenol red-free media (RPMI) were then added.
10 μL of 3-(4,5-dimethylthiazol-2-yl)-2,5-diphenyltetrazolium bromide (MTT) (final concentration: 1×) was added, followed by reaction at 37° C. for 4 hours. After 100 μL of a supernatant was removed, 100 μL of DMSO was added, followed by reaction for 10 minutes. The colorimetric change of MTT according to a protein type treated to the cells and the light irradiation time was checked, and then cell viability was confirmed by measuring the absorbance intensity at 570 nm using a plate reader.
MTT is an assay for measuring cell proliferation or live cells through the presence of blue-violet insoluble […] in the mitochondria of the live cells, where it has been reduced from a yellow soluble substrate, MTT tetrazolium, by the action of a dehydrogenase.

[4] = system: MCF-7 cells; test: MTT colorimetric change and cell viability after light irradiation; conditions: MCF-7, protein 10 μM 24 hours, light 10 mW/cm^2, no Co-h
Experimental: MCF-7 cells were seeded at 5×10^5 cells/mL in a 96-well plate (SPL Cell Culture Plate, 96 well (SPL, Cat #30096)), and cultured at 37° C. for 24 hours (overnight). After the overnight culture, the cells were washed with FBS & Phenol red-free media (RPMI, Well Gene., Korea, Cat #LM011-02), and 100 μL of an FBS-free medium containing the purified protein (final concentration: 10 μM) was added, followed by reaction at 37° C. for 24 hours. After the reaction for 24 hours, the cells were washed with FBS & Phenol red-free media (RPMI), and then 100 μL of FBS & Phenol red-free media (RPMI) was added again. After light irradiation at 10 mW/cm^2 over time, the cells were washed with FBS & Phenol red-free media (RPMI), and 100 μL of FBS & Phenol red-free media (RPMI) was added again. 10 μL of 3-(4,5-dimethylthiazol-2-yl)-2,5-diphenyltetrazolium bromide (MTT; Cell Biolabs Inc., USA; final concentration: 1×) was added, followed by reaction at 37° C. for 4 hours. 100 μL of a supernatant was removed, and 100 μL of DMSO (Sigma-Aldrich., USA) was added, followed by reaction for 10 minutes. The colorimetric change of MTT according to a protein type treated to the cells and light irradiation time was confirmed, and then cell viability was confirmed by measuring the absorbance intensity at 570 nm using a plate reader.

Molecule | cell death by staining (SYTOX Green or EthD-1 dead cells, DAPI live cells) [1] | cell death with Co-h substrate [2] | cell viability / colorimetric change of MTT with reaction time with Co-h [3] | cell viability / colorimetric change of MTT with light irradiation time [4]
B1 | stained with DAPI | none of the six breast cancer cell lines were killed | the staining becomes pink | alive
B2 | stained with DAPI | – | the staining becomes pink | alive
B3 | stained with SYTOX Green or EthD-1; also recorded: the number of dead cells increases | killed them | die and cell viability is reduced | killed; also recorded: cell viability decreased
